The values that follow come from paper doi:10.1101/2021.05.19.444448.

Series [1] addresses T1, HA-PGBD1 (Homo sapiens, UniProt Q96JS3 1-809).
T1 sequence: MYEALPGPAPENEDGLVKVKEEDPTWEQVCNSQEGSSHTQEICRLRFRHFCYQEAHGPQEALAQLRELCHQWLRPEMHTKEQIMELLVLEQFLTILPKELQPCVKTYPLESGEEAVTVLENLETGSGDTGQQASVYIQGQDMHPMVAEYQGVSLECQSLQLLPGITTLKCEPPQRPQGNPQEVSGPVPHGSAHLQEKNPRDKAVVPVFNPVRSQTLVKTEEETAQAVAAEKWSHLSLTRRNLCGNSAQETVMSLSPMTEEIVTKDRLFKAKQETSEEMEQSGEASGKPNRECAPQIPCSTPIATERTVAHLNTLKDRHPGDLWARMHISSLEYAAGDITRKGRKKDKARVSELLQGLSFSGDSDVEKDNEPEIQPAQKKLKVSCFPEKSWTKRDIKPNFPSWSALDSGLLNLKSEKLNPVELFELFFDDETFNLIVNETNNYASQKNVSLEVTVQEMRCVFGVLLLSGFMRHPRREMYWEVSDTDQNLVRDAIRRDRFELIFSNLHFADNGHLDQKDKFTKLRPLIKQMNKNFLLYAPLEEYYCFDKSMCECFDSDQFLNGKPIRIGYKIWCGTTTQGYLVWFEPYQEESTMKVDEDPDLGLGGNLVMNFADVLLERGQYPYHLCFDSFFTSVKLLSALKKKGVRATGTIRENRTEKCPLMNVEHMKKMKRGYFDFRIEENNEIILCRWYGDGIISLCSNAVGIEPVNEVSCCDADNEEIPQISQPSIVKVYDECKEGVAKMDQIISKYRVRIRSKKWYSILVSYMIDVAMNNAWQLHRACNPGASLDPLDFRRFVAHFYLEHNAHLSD
Kind of series: EMSA.

The target of series [2] is T1, HA-PGBD1. Put plainly: competition.

B1: SCAN-12 / PGBD1 oligo (GS-PGBD1-UP/LOW) (dsDNA)
DNA 1: GCTTTCAATGGAATGGAATGCCTTCC
DNA 2: GGAAGGGATTCCATTCCATTGAAAGC
For B1, the binding result with HA-PGBD1 [1] is on record as “binds”.

B2: unlabelled PGBD1 oligo (competitor) (dsDNA)
DNA 1: GCTTTCAATGGAATGGAATGCCTTCC
DNA 2: GGAAGGGATTCCATTCCATTGAAAGC
For the molecule B2, the binding result with HA-PGBD1 [2] is on record as “binds”.
